The source of these data is patent publication US20240309105A1 (Boehringer Ingelheim, published 2024).

As usually defined, the EC90 is the concentration needed for an effect of 90%. The term EC50 denotes the concentration needed to bring the measured effect to its halfway point. One may read the Kd as the concentration at which binding is half-saturated.

Assay [1] has as its target T1, human CD40 on cells (human, UniProt P25942 21-277). Description: FACS on B cells in whole blood of healthy subjects; 240 mg SC dose group, Day 78.
Assay [2] addresses T1, human CD40 on cells. Description: binding to human B cells.
The target in assay [3] is T1, human CD40 on cells. The assay can be described thus: cell-based or functional assay.
Assay [4] deals with T1, human CD40 on cells. Description: FACS on B cells in whole blood of healthy subjects; 180 mg SC dose group, Day 64.
Assay [5] addresses T1, human CD40 on cells. Description: FACS on B cells in whole blood of healthy subjects, free CD40 detected with excess FITC-labeled antibody; 72 hours after a single 120-240 mg SC dose.
Assay [6] addresses T1, human CD40 on cells. The assay can be described thus: FACS on B cells in whole blood of healthy subjects; after the fourth once-weekly SC dose, all doses, until Day 39.
The target of assay [7] is T1, human CD40 on cells. Description: FACS on B cells in whole blood of healthy subjects, free CD40 detected with excess FITC-labeled antibody; 72 hours after a single 80 mg SC dose.
Assay [8] addresses T1, human CD40 on cells. Description: cell binding, flow cytometry (cell line not given). Here is the method: The specific binding of humanized antibodies to cellular CD40 was analyzed by flow cytometry using human CD40-transfected HEK293 cells. Concentration-dependent binding of Antibody A, Antibody B, and Antibody C was observed. […] No binding was detected on CD40 negative cells such as non-transfected HEK293 cells or the T cell line HSB-2 thus confirming selective binding to CD40 (data not shown).

Another assay concerns the target T2, human CD40-Fc protein (human, UniProt P25942 21-193).
T2 construct: also called recombinant CD40 protein; not shown: Fc part
Description: ForteBio Octet, human CD40-Fc, with and without human serum. Here is the method: Due to antibody and CD40-Fc bivalency avidity effects prevent Kds below 100 pM from being determined accurately. In addition, the binding to CD40-Fc was analyzed in the absence and presence of 50% human serum and no significant effect of serum on binding was observed (data not shown)
For orientation: In BLI a coated tip is dipped into the sample, and binding shifts an interference pattern.

The target of assay [9] is T1, human CD40 on cells. The assay can be described thus: cell-based or functional assay. This is another data set of the same source.
The target in assay [10] is T3, cynomolgus monkey CD40 on cells (cynomolgus monkey, UniProt G7PG38 21-278).
T3 construct: whole, on cells; Cell surface CD40 on cynomolgus B cells and platelets; also called Cyno CD40; CD40 on cynomolgus monkey B cells and platelets
The assay can be described thus: ratio of binding EC50, human over cynomolgus; ratio > 1 means increased binding to Cyno compared to Human.

The target in assay [11] is T1, human CD40 on cells. The assay can be described thus: cell-based or functional assay. The source holds these as a separate data set.
Assay [12] deals with T1, human CD40 on cells. Description: flow cytometry, human CD40-transfected HEK293 cells. Background: In flow cytometry, cells or beads pass a laser one at a time.
The target in assay [13] is T1, human CD40 on cells. The assay can be described thus: FITC-labeled antibody on Ramos cells.

T1 sequence (P25942 21-277): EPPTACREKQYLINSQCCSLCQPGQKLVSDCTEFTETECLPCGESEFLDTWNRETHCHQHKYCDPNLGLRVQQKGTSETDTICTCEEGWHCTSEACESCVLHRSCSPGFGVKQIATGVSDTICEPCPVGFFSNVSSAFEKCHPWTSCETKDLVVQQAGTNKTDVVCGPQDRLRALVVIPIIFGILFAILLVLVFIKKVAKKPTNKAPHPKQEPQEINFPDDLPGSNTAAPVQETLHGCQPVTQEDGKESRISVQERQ
T2 sequence (P25942 21-193 limits assumed): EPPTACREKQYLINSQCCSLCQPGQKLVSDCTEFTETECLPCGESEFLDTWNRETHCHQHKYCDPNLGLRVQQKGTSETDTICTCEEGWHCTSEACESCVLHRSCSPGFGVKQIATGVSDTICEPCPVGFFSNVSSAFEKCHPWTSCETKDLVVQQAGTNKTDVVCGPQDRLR

On to “an antibody of the present invention (BI 655064)”, for which, in the assay with human CD40 on cells [1], the CD40 receptor occupancy (RO) stood at 68%. The EC90 with human CD40 on cells [2] is 6.85 nM. Also, in the assay with human CD40 on cells [3], the inhibition of CD54 upregulation after the fourth once-weekly SC dose, all doses, up to Day 39 was more than 90%; the inhibition of CD54 upregulation, 80 mg SC single dose, first post-dose measurement (72 hours) is 87%; the inhibition of CD54 upregulation, 80 mg SC, Day 7 post dose came to 95%; the inhibition of CD54 upregulation, 180 mg group, Day 64 was found to be 89%. Besides, in the assay with human CD40 on cells [3], the inhibition of CD54 upregulation, 240 mg group, Day 78 was found to be 51%; the inhibition of CD54 upregulation, all other doses (120-240 mg SC), from 72 hours onwards stood at 95%; the inhibition of CD54 upregulation, higher doses (120-240 mg SC), 72 hours after the first dose was more than 90%. This molecule yielded a CD40 receptor occupancy (RO) in the assay with human CD40 on cells [4] of 79%. For the same molecule, in the assay with human CD40 on cells [5], the CD40 receptor occupancy (RO) lay in the range of 94 to 95%. This molecule yielded a CD40 receptor occupancy (RO) with human CD40 on cells [6] of more than 90%. For the same molecule, the CD40 receptor occupancy (RO) in the assay with human CD40 on cells [7] is 89%.

B1: Antibody A (antibody, human IgG1, kappa, L234A L235A, V domains shown)
VH: EVQLVESGGGLVKPGGSLRLSCAASGFTFSDYGMHWVRQAPGKGLEWVAYISSGNRIIYYADTVKGRFTISRDNAKNSLYLQMNSLRAEDTALYYCARQDGYRYAMDYWAQGTLVTVSS
VL: DIVMTQSPDSLAVSLGERATMSCKSSQSLLNSGNQKNYLTWHQQKPGQPPKLLIYWTSTRESGVPDRFSGSGSGTDFTLTISSLQAEDVAVYYCQNDYTYPLTFGGGTKVEIKR
notes: also called humanized 20E2
In the assay with human CD40 on cells [8], B1 registered an EC50 of 1.2 nM. This molecule also registered a dissociation constant Kd in the assay with human CD40-Fc protein of less than 0.1 nM. For the same molecule, the “B cell proliferation: Agonism (SI*)” value with human CD40 on cells [9] was < 2 SI (Stimulation Index). The “Species cross-react.: Hu/Cyno Binding (EC50 ratios)” value in assay [10] was determined as 3 ratio.

B2: Antibody B (antibody, human IgG1, kappa, L234A L235A, V domains shown)
VH: EVQLVESGGGLVKPGGSLRLSCAASGFTFSDYGMHWVRQAPGKGLEWVAYISSGNRIIYYADTVKGRFTISRDNAKNSLYLQMNSLRAEDTAVYYCARQDGYRYAMDYWGQGTLVTVSS
VL: DIVMTQSPDSLAVSLGEKVTINCKSSQSLLNSGNQKNYLTWHQQKPGQPPKLLIYWTSTRESGVPDRFSGSGSGTDFTLTISSLQAEDVAVYYCQNDYTYPLTFGGGTKVEIKR
notes: also called humanized 20E2
Molecule B2 came in with an EC50 with human CD40 on cells [8] of 1.5 nM. This molecule also displayed a Kd with human CD40-Fc protein of less than 0.1 nM. Moreover, the “B cell proliferation: Agonism (SI*)” value with human CD40 on cells [9] is < 2 SI (Stimulation Index). The “Species cross-react.: Hu/Cyno Binding (EC50 ratios)” value in assay [10] was 2 ratio.

B3: 4D11 (Kirin/Astellas) anti-CD40 antibody (antibody, V domains shown)
VH: QLQLQESGPGLLKPSETLSLTCTVSGGSISSPGYYGGWIRQPPGKGLEWIGSIYKSGSTYHNPSLKSRVTISVDTSKNQFSLKLSSVTAADTAVYYCTRPVVRYFGWFDPWGQGTLVTVSS
VL: AIQLTQSPSSLSASVGDRVTITCRASQGISSALAWYQQKPGKAPKLLIYDASNLESGVPSRFSGSGSGTDFTLTISSLQPEDFATYYCQQFNSYPTFGQGTKVEIK
For B3, the “B cell proliferation assay, average IC50” value with human CD40 on cells [11] is approximately 0.02 nM. The EC50 with human CD40 on cells [8] is 0.9 nM; with human CD40 on cells [12], approximately 1 nM. In the assay with human CD40-Fc protein, this molecule showed a Kd of less than 0.1 nM. Besides, the “B cell proliferation: Agonism (SI*)” value with human CD40 on cells [9] is < 2 SI (Stimulation Index).

B4: 2H11 (antibody, V domains shown)
VH: EVQLQQSGAELVRPGASVKLSCTASGFNIKDYYVHWVKQRPEKGLEWIGRIDPEDGDSKYAPKFQGKATMTADTSSNTAYLHLSSLTSEDTAVYYCTTSYYVGTYGYWGQGTTLTVSS
VL: QIVLTQSPAIMSASPGEKVTITCSASSSVSYMLWFQQKPGTSPKLWIYSTSNLASGVPARFGGSGSGTSYSLTISRMEAEDAATYYCQQRTFYPYTFGGGTKLEIK
notes: Mouse monoclonal antibody; also called murine anti-CD40 mAb 2H11
Regarding B4, in the assay with human CD40 on cells [13], the binding result is given as “binds”.

B5: Antibody C (antibody, human IgG1, kappa, L234A L235A, V domains shown)
VH: QVQLVQSGAEVKKPGASVKVSCTASGFNIKDYYVHWVKQAPGQGLEWMGRIDPEDGDSKYAPKFQGKATMTADTSTSTVYMELSSLRSEDTAVYYCTTSYYVGTYGYWGQGTLVTVSS
VL: DIQMTQSPSSLSASVGDRVTITCSASSSVSYMLWFQQKPGKAPKLLIYSTSNLASGVPSRFSGSGSGTDFTLTISSLQPEDFATYYCQQRTFYPYTFGGGTKVEIKR
notes: also called humanized 2H11
In the case of B5, the EC50 in the assay with human CD40 on cells [8] was 1.7 nM. The same molecule showed a Kd in the assay with human CD40-Fc protein of less than 0.1 nM. In the assay with human CD40 on cells [9], the “B cell proliferation: Agonism (SI*)” value was < 2 SI (Stimulation Index). Moreover, in assay [10], the “Species cross-react.: Hu/Cyno Binding (EC50 ratios)” value worked out at 1 ratio.
